According to patent publication US8409836B2, “Treatment of cellulosic material and enzymes useful therein” (Roal Oy, priority 2005, dated 2013):
Values belong to the molecule of their own block, whether it stands above or below them.

Legend:
[1] = substrate: O=[N+]([O-])c1ccc(O[C@@H]2O[C@H](CO)[C@@H](O[C@@H]3O[C@H](CO)[C@H](O)[C@H](O)[C@H]3O)[C@H](O)[C@H]2O)c(Cl)c1; experiment: Michaelis-Menten kinetic constants on CNPLac; format: biochemical, Chaetomium thermophilum; conditions: other: Ct Cel7A, 50 mM sodium phosphate pH 5.7, 22° C.
Experimental: (§1) The Michaelis-Menten and cellobiose inhibition constants were determined from the cellobiohydrolases produced heterologously in T. reesei (Examples 14 and 15). The enzymes were purified as described in Example 2. Protein concentrations of purified enzymes were measured by their absorption at 280 nm using a theoretical molar extinction co-efficient, which were calculated from the amino acid sequences (Gill and von Hippel, 1989).
(§2) Kinetic constants (Km and kcat values) and cellobiose inhibition constant (Ki) for Tr CBHI/Cel7A, Ta CBH/Cel7A, At CBH/Cel7A and Ct CBH/Cel7A, were measured using CNPLac (2-Chloro-4-nitrophenyl-β-D-lactoside) as substrate at ambient temperature (22° C.) in 50 mM sodium phosphate buffer, pH 5.7. For the determination of the inhibition constant (Ki), eight different substrate concentrations (31-4000 μM) in the presence of a range of five inhibitor concentrations (0-100 μM or 0-400 μM), which bracket the Ki value, were used. All experiments were performed in microtiter plates and the total reaction volume was 200 μl. The initial rates were in each case measured by continuous monitoring the release of the chloro-nitrophenolate anion (CNP, 2-Chloro-4-nitrophenolate) through measurements at 405 nm using Varioscan (Thermolabsystems) microtiter plate reader. The results were calculated from CNP standard curve (from 0 to 100 μM). Enzyme concentrations used were: Tr CBHI/Cel7A 2.46 μM, Ta CBH/Cel7A 1.58 μM, Ct CBH/Cel7A 0.79 μM and At CBH/Cel7A 3 μM. The Km and kcat constants were calculated from the fitting of the Michaelis-Menten equation using the programme of Origin. Lineweaver-Burk plots, replots (LWB slope versus [Glc2; cellobiose]) and Hanes plots were used to distinguish between competitive and mixed type inhibition and to determine the inhibition constants (Ki).

[2] = Hydrolysis with CBH enzyme mixtures, spruce; format: biochemical; conditions: additional enzymes EGII, bG; 48 h, 45° C., pH 5.0
Experimental: (§3) The performance of the purified recombinant cellobiohydrolases was evaluated in the hydrolysis studies with purified T. reesei enzymes. Hydrolysis was carried out with controlled mixtures of purified enzymes on several pre-treated substrates. […] In addition, pure T. reesei cellulases (purified as described by Suurnäkki et al., 2000) were used in the enzyme mixtures. The cellobiohydrolases used in the experiment were:
(§4) Each CBH/Cel7 to be tested (dosage 14.5 mg/g dry matter of substrate) was used either together with EGII/Cel5A of T. reesei (3.6 mg/g) or with a mixture containing T. reesei EGI/Cel7B (1.8 mg/g), EGII/Cel5A (1.8 mg/g), xylanase pI 9 (Tenkanen et al. 1992) (5000 nkat/g) and acetyl xylan esterase (AXE) (Sundberg and Poutanen, 1991) (250 nkat/g). All mixtures were supplemented with additional β-glucosidase from a commercial enzyme preparation Novozym 188 (176 nkat/g d.w.). Triplicate tubes containing the enzyme mixture and 10 mg (dry matter)/ml of the substrate suspended in 0.05 M sodium acetate were incubated in mixing by magnetic stirring at 45° C. for 48 h. Reference samples with inactivated enzymes and corresponding substrates were also prepared. The release of hydrolysis products was measured as reducing sugars with DNS method using glucose as standard (Table 30).
Washed steam pre-treated spruce fibre (impregnation with 3% w/w SO2 for 20 min, followed by steam pre-treatment at 215° C. for 5 min), dry matter 25.9% (SPRUCE).

[3] = Hydrolysis with CBH enzyme mixtures, willow; format: biochemical; conditions: additional enzymes EGII, bG, 48 h, 45° C., pH 5.0
Experimental: as §3, §4
Washed steam pre-treated willow fibre (pre-treatment for 14 min at 210° C.), dry matter 23.0% (WILLOW).

[4] = pH optimum of recombinant CBH/Cel7 proteins; format: biochemical; conditions: McIlvaine buffer, pH range 3.0-8.0, MUL, 50° C., 10 min
Experimental: The recombinant CBH/Cel7 enzyme preparations were characterized in terms of pH optimum and thermal stability. The pH optimum of the recombinant CBH/Cel7 proteins from Thermoascus aurantiacus, Chaetomium thermophilum, and Acremonium thermophilum were determined in the universal McIlvaine buffer within a pH range of 3.0-8.0 using 4-methylumbelliferyl-β-D-lactoside (MUL) as a substrate (FIG. 3A). The pH optimum for Ct Cel7A and At Cel7A enzymes is at 5.5, above which the activity starts to gradually drop. The pH optimum of the recombinant crude Ta Cel7A is at 5.0 (FIG. 3A). Thermal stability of the recombinant Cel7 enzymes was determined by measuring the MUL activity in universal McIlvaine buffer at the optimum pH with reaction time of 1 h.

[5] = Hydrolysis with CBH enzyme mixtures, corn stover; format: biochemical; conditions: additional enzymes EGII, bG, 48 h, 45° C., pH 5.0
Experimental: as §3, §4
Washed wet oxidized corn stover fibre (WOCS).

[6] = Hydrolysis with CBH enzyme mixtures, Avicel; format: biochemical; conditions: additional enzymes EGII, bG; 48 h, 45° C., pH 5.0
Experimental: as §3, §4
Crystalline cellulose (Avicel)

[7] = Xylanase activity on birch xylan; format: biochemical
Experimental: (§5) The specific activity of the preparations was determined using 4-methylumbelliferyl-β-D-lactoside (MUL), 4-methylumbelliferyl-β-D-cellobioside (MUG2) or 4-methylumbelliferyl-β-D-cellotrioside (MUG3) as substrate (van Tilbeurgh et al., 1988) in 0.05 M sodium citrate buffer pH 5 at 50° C. for 10 min. Endoglucanase and xylanase activities were determined by standard procedures (according to IUPAC, 1987) using carboxymethyl cellulose (CMC) and birch glucuronoxylan (Bailey et al., 1992) as substrates. Specific activity against Avicel was calculated on the basis of reducing sugars formed in a 24 h reaction at 50° C., pH 5.0, with 1% substrate and 0.25 μM enzyme dosage. The protein content of the purified enzyme preparations was measured according to Lowry et al., 1951. To characterize the end products of hydrolysis, soluble sugars liberated in 24 h hydrolysis experiment, as described above, were analysed by HPLC (Dionex). Purified cellobiohydrolase I (CBHI/Cel7A) of Trichoderma reesei was used as a reference.
Acremonium thermophilum ALKO4245 was grown as described in Example 1. The culture supernatant was incubated at 70° C. for 24 hours after which, it was concentrated by ultrafiltration. The pure xylanase was obtained by sequential purification with hydrophobic interaction and cation exchange chromatography followed by gel filtration. The xylanase activity was determined using birch xylan as substrate (procedure of IUPAC 1987). Protein was assayed by BioRad Protein Assay Kit (Bio-Rad Laboratories) using bovine serum albumin as standard.
Thermoascus aurantiacus ALKO4242 was grown as described in Example 1. The pure xylanase was obtained by sequential purification with hydrophobic interaction, anion, and cation exchange chromatography followed by gel filtration. The xylanase activity was determined using birch xylan as substrate (procedure of IUPAC 1987). Protein was assayed by BioRad Protein Assay Kit (Bio-Rad Laboratories) using bovine serum albumin as standard.

[8] = Specific activity on MUG2; format: biochemical; conditions: purified xylanase, 50° C. pH 5.0 10 min
Experimental: as §5

[9] = Specific activity on MUG3; format: biochemical; conditions: purified xylanase, 50° C. pH 5.0 10 min
Experimental: as §5

[10] = Specific activity on MUL; format: biochemical; conditions: purified xylanase, 50° C. pH 5.0 10 min
Experimental: as §5

[11] = substrate: O=[N+]([O-])c1ccc(O[C@@H]2O[C@H](CO)[C@@H](O[C@@H]3O[C@H](CO)[C@H](O)[C@H](O)[C@H]3O)[C@H](O)[C@H]2O)c(Cl)c1; experiment: Michaelis-Menten kinetic constants on CNPLac; format: biochemical, Trichoderma reesei; conditions: other: Tr Cel7A, 50 mM sodium phosphate pH 5.7, 22° C.
Experimental: as §1, §2

B1: Chaetomium thermophilum ALKO4265 cellobiohydrolase Ct Cel7A (Ct CBH/Cel7A), recombinant, SEQ ID NO: 8 (Thermochaetoides thermophila) (protein)
chain: QQACSLTAENHPSLTWKRCTSGGSCSTVNGAVTIDANWRWTHTVSGSTNCYTGNQWDTSLCTDGKSCAQTCCVDGADYSSTYGITTSGDSLNLKFVTKHQYGTNVGSRVYLMENDTKYQMFELLGNEFTFDVDVSNLGCGLNGALYFVSMDADGGMSKYSGNKAGAKYGTGYCDAQCPRDLKFINGEANVGNWTPSTNDANAGFGRYGSCCSEMDVWEANNMATAFTPHPCTTVGQSRCEADTCGGTYSSDRYAGVCDPDGCDFNAYRQGDKTFYGKGMTVDTNKKMTVVTQFHKNSAGVLSEIKRFYVQDGKIIANAESKIPGNPGNSITQEYCDAQKVAFSNTDDFNRKGGMAQMSKALAGPMVLVMSVWDDHYANMLWLDSTYPIDQAGAPGAERGACPTTSGVPAEIEAQVPNSNVIFSNIRFGPIGSTVPGLDGSNPGNPTTTVVPPASTSTSRPTSSTSSPVSTPTGQPGGCTTQKWGQCGGIGYTGCTNCVAGTTCTQLNPWYSQCL
Km [1]: 1960 µM | kcat [1]: 0.313 s⁻¹ | kcat/Km [1]: 158 M⁻¹ s⁻¹

Hydrolysis products as reducing sugars, SPRUCE [2]: 2.0 mg/mL | Hydrolysis products as reducing sugars, WILLOW ([3]; EGI, XYL, AXE): 2.8 mg/mL | Hydrolysis products as reducing sugars, WILLOW [3]: 2.0 mg/mL | Hydrolysis products as reducing sugars, WOCS ([5]; EGI, XYL, AXE): 4.3 mg/mL | Hydrolysis products as reducing sugars, WOCS [5]: 2.8 mg/mL | Hydrolysis products as reducing sugars, Avicel [6]: 2.0 mg/mL
B2: Ta Cel7A: cellobiohydrolase of Thermoascus aurantiacus ALKO4242, gene Ta cel7A, amino acid SEQ ID NO: 2, no CBD (protein)
chain: MYQRALLFSFFLAAARAQQAGTVTAENHPSLTWQQCSSGGSCTTQNGKVVIDANWRWVHTTSGYTNCYTGNTWDTSICPDDVTCAQNCALDGADYSGTYGVTTSGNALRLNFVTQSSGKNIGSRLYLLQDDTTYQIFKLLGQEFTFDVDVSNLPCGLNGALYFVAMDADGGLSKYPGNKAGAKYGTGYCDSQCPRDLKFINGQANVEGWQPSANDPNAGVGNHGSCCAEMDVWEANSISTAVTPHPCDTPGQTMCQGDDCGGTYSSTRYAGTCDPDGCDFNPYRQGNHSFYGPGQIVDTSSKFTVVTQFITDDGTPSGTLTEIKRFYVQNGKVIPQSESTISGVTGNSITTEYCTAQKAAFGDNTGFFTHGGLQKISQALAQGMVLVMSLWDDHAANMLWLDSTYPTDADPDTPGVARGTCPTTSGVPADVESQYPNSYVIYSNIKVGPINSTFTAN
pH optimum [4]: 5.0

B3: At XYN_60: xylanase of Acremonium thermophilum ALKO4245, gene At xyn10A, amino acid SEQ ID NO: 20 (protein)
chain: MRAKQLLAAGLLAPASVSAQLNSLAVAAGLKYFGTAVREANVNGDATYMSYVNNKSEFGQVTPENGQKWDSTEPSQGQFSYSQGDIVPGVAKKNGQVLRCHTLVWYSQLPSWVSSGSWTRATLQSVIETHISNVMGHYKGQCYAWDVVNEAINDDGTWRTSVFYNTFNTDYLAIAFNAAKKADAGAKLYYNDYNLEYNGAKTNTAVQLVQIVQQAGAPIDGVGFQGHLIVGSTPSRSSLATALKRFTALGLEVAYTELDIRHSSLPPSSAALATQGNDFASVVGSCLDVAGCVGITIWGFTDKYSWVPDTFPGSGAALLYDANYSKKPAWTSVSSVLAAKATNPPGGGNPPPVTTTTTTTTTSKPSQPTTTTTTTSPQGPQQTHWGQCGGIGWTGPQSCQSPWTCQKQNDWYSQCL
Relative activity at 60° C. as compared to 50° C. ([7]; 10 min, pH 5.0): about 1.2 fold | Relative activity at 70° C. as compared to 50° C. ([7]; 10 min, pH 5.0): ~1.65 fold | Specific activity on birch xylan ([7]; purified xylanase, 50° C., procedure of IUPAC 1987): 1800 nkat/mg | Specific activity against MUG2 [8]: 54 nkat/mg | Specific activity against MUG3 [9]: 78 nkat/mg | Specific activity against MUL [10]: 33 nkat/mg

B4: Trichoderma reesei cellobiohydrolase I Tr Cel7A (Tr CBHI/Cel7A) (Trichoderma reesei RUT C-30) (protein)
chain: QSACTLQSETHPPLTWQKCSSGGTCTQQTGSVVIDANWRWTHATNSSTNCYDGNTWSSTLCPDNETCAKNCCLDGAAYASTYGVTTSGNSLSIGFVTQSAQKNVGARLYLMASDTTYQEFTLLGNEFSFDVDVSQLPCGLNGALYFVSMDADGGVSKYPTNTAGAKYGTGYCDSQCPRDLKFINGQANVEGWEPSSNNANTGIGGHGSCCSEMDIWEANSISEALTPHPCTTVGQEICEGDGCGGTYSDNRYGGTCDPDGCDWNPYRLGNTSFYGPGSSFTLDTTKKLTVVTQFETSGAINRYYVQNGVTFQQPNAELGSYSGNELNDDYCTAEEAEFGGSSFSDKGGLTQFKKATSGGMVLVMSLWDDYYANMLWLDSTYPTNETSSTPGAVRGSCSTSSGVPAQVESQSPNAKVTFSNIKFGPIGSTGNPSGGNPPGGNPPGTTTTRRPATTTGSSPGPTQSHYGQCGGIGYSGPTVCASGTTCQVLNPYYSQCL
Km [11]: 520 µM | kcat [11]: 0.0433 s⁻¹ | kcat/Km [11]: 83.3 M⁻¹ s⁻¹
